# Laboratory results as given in US20260242735A1 (UNIVERSIT T BASEL, published 2026).
# B1: Refmab #5 (antibody, V domains shown)
# VH: QVQLVQSGAEVKKPGASVKVSCKASGYTFTNYDINWVRQAPGQGLEWIGWIYPGDGSTKYNEKFKAKATLTADTSTSTAYMELRSLRSDDTAVYYCASGYEDAMDYWGQGTTVTVSS
# VL: DIQMTQSPSSLSASVGDRVTINCKASQDINSYLSWFQQKPGKAPKTLIYRANRLVDGVPSRFSGSGSGQDYTLTISSLQPEDFATYYCLQYDEFPLTFGGGTKVEIK
# notes: Full-length format is human IgG1 Fc silent (PG-LALA); also made as Fab; The alanine scan used IgG or Fab
# B2: Refmab #5 (antibody, V domains shown)
# VH: QVQLVQSGAEVKKPGASVKVSCKASGYTFTNYDINWVRQAPGQGLEWIGWIYPGDGSTKYNEKFKAKATLTADTSTSTAYMELRSLRSDDTAVYYCASGYEDAMDYWGQGTTVTVSS
# VL: DIQMTQSPSSLSASVGDRVTINCKASQDINSYLSWFQQKPGKAPKTLIYRANRLVDGVPSRFSGSGSGQDYTLTISSLQPEDFATYYCLQYDEFPLTFGGGTKVEIK
# notes: The alanine scan used IgG or Fab
# B3: Refmab #6 (antibody, V domains shown)
# VH: QVQLQQPGAEVVKPGASVKMSCKASGYTFTSYYIHWIKQTPGQGLEWVGVIYPGNDDISYNQKFQGKATLTADKSSTTAYMQLSSLTSEDSAVYYCAREVRLRYFDVWGQGTTVTVSS
# VL: EIVLTQSPGSLAVSPGERVTMSCKSSQSVFFSSSQKNYLAWYQQIPGQSPRLLIYWASTRESGVPDRFTGSGSGTDFTLTISSVQPEDLAIYYCHQYLSSRTFGQGTKLEIK
# notes: as for B1
# B4: Refmab #6 (antibody, V domains shown)
# VH: QVQLQQPGAEVVKPGASVKMSCKASGYTFTSYYIHWIKQTPGQGLEWVGVIYPGNDDISYNQKFQGKATLTADKSSTTAYMQLSSLTSEDSAVYYCAREVRLRYFDVWGQGTTVTVSS
# VL: EIVLTQSPGSLAVSPGERVTMSCKSSQSVFFSSSQKNYLAWYQQIPGQSPRLLIYWASTRESGVPDRFTGSGSGTDFTLTISSVQPEDLAIYYCHQYLSSRTFGQGTKLEIK
# notes: as for B2
# Tests used:
# human CD33 P201A = human CD33 P201A (human, UniProt P20138 18-364); experiment: alanine scan, flow cytometry;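 further: HEK293-T cells transiently expressing single-residue alanine mutants of CD33 (alanine swapped to serine), antibody binding read by fluorescence in duplicate, background-subtracted, expressed relative to wild-type CD33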
# human CD33 V258A = human CD33 V258A (human, UniProt P20138 18-364); experiment: alanine scan, flow cytometry;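 further: HEK293-T cells transiently expressing single-residue alanine mutants of CD33 (alanine swapped to serine), antibody binding read by fluorescence in duplicate, background-subtracted, expressed relative to wild-type CD33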
# human CD33 T226A = human CD33 T226A (human, UniProt P20138 18-364); experiment: alanine scan, flow cytometry;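 further: HEK293-T cells transiently expressing single-residue alanine mutants of CD33 (alanine swapped to serine), antibody binding read by fluorescence in duplicate, background-subtracted, expressed relative to wild-type CD33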
# human CD33 L229A = human CD33 L229A (human, UniProt P20138 18-364); experiment: alanine scan, flow cytometry;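 further: HEK293-T cells transiently expressing single-residue alanine mutants of CD33 (alanine swapped to serine), antibody binding read by fluorescence in duplicate, background-subtracted, expressed relative to wild-type CD33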
# human CD33 K215A = human CD33 K215A (human, UniProt P20138 18-364); experiment: alanine scan, flow cytometry
# human CD33 L270A = human CD33 L270A (human, UniProt P20138 18-364); experiment: alanine scan, flow cytometry
# human CD33 V332A = human CD33 V332A (human, UniProt P20138 18-364); experiment: flow cytometry, HEK293-T, alanine scan;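 further: transiently transfected HEK293-T cells expressing single alanine mutants of human CD33 (alanine residues changed to serine), antibody binding fluorescence minus background, relative to wild type CD33, mean of duplicates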
# Description: (§1) An alanine scan on human CD33 was performed to the determine the residues on CD33 that are involved in binding to the antibodies investigated. […] Briefly, a mutation library of CD33 was created by high-throughput, site-directed mutagenesis. Each residue was individually mutated to alanine, with alanine codons mutated to serine. The mutant library was arrayed in 384-well microplates and transiently transfected into HEK293-T. Following transfection, cells were incubated with the indicated antibodies (IgG or Fab) at concentrations pre-determined using an independent immunofluorescence titration curve on wild type CD33. […] Binding of each antibody to each mutant clone was determined in duplicates. For each point, background fluorescence was subtracted from the raw data, which were then normalized to antibody reactivity with wild type CD33.
# (§2) Critical residues for antibody binding (outlined in dark grey) were residues whose mutations led to a binding of the test Abs of less than 20%. Additional secondary residues (outlined in light grey) were identified that led to a binding of the test Abs of between 20 and 40% as compared to the wild type CD33.
# human CD33 L273A = human CD33 L273A (human, UniProt P20138 18-364); experiment: flow cytometry, HEK293-T, alanine scan;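 further: transiently transfected HEK293-T cells expressing single alanine mutants of human CD33 (alanine residues changed to serine), antibody binding fluorescence minus background, relative to wild type CD33, mean of duplicates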
# Description: as §1, §2
# human CD33 R286A = human CD33 R286A (human, UniProt P20138 18-364); experiment: flow cytometry, HEK293-T, alanine scan;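 further: transiently transfected HEK293-T cells expressing single alanine mutants of human CD33 (alanine residues changed to serine), antibody binding fluorescence minus background, relative to wild type CD33, mean of duplicates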
# Description: as §1, §2
# human CD33 P301A = human CD33 P301A (human, UniProt P20138 18-364); experiment: flow cytometry, HEK293-T, alanine scan;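 further: transiently transfected HEK293-T cells expressing single alanine mutants of human CD33 (alanine residues changed to serine), antibody binding fluorescence minus background, relative to wild type CD33, mean of duplicates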
# Description: as §1, §2
# human CD33 T303A = human CD33 T303A (human, UniProt P20138 18-364); experiment: flow cytometry, HEK293-T, alanine scan
# Description: as §1, §2
# human CD33 E321A = human CD33 E321A (human, UniProt P20138 18-364); experiment: flow cytometry, HEK293-T, alanine scan
# Description: as §1, §2
# human CD33 K312A = human CD33 K312A (human, UniProt P20138 18-364); experiment: flow cytometry, HEK293-T, alanine scan
# Description: as §1, §2
# human CD33 C276A = human CD33 C276A (human, UniProt P20138 18-364); experiment: flow cytometry, HEK293-T, alanine scan
# Description: as §1, §2
# human CD33 A341S = human CD33 A341S (human, UniProt P20138 18-364); experiment: flow cytometry, HEK293-T, alanine scan
# Description: as §1, §2
# human CD33 L277A = human CD33 L277A (human, UniProt P20138 18-364); experiment: flow cytometry, HEK293-T, alanine scan
# Description: as §1, §2
# human CD33 A306S = human CD33 A306S (human, UniProt P20138 18-364); experiment: flow cytometry, HEK293-T, alanine scan
# Description: as §1, §2
# human CD33 R291A = human CD33 R291A (human, UniProt P20138 18-364); experiment: flow cytometry, HEK293-T, alanine scan
# Description: as §1, §2
# human CD33 S342A = human CD33 S342A (human, UniProt P20138 18-364); experiment: flow cytometry, HEK293-T, alanine scan
# Description: as §1, §2
# human CD33 R296A = human CD33 R296A (human, UniProt P20138 18-364); experiment: flow cytometry, HEK293-T, alanine scan
# Description: as §1, §2
# human CD33 Q311A = human CD33 Q311A (human, UniProt P20138 18-364); experiment: flow cytometry, HEK293-T, alanine scan
# Description: as §1, §2
# human CD33 R287A = human CD33 R287A (human, UniProt P20138 18-364); experiment: flow cytometry, HEK293-T, alanine scan
# Description: as §1, §2
# human CD33 A272S = human CD33 A272S (human, UniProt P20138 18-364); experiment: flow cytometry, HEK293-T, alanine scan
# Description: as §1, §2
# human CD33 L271A = human CD33 L271A (human, UniProt P20138 18-364); experiment: flow cytometry, HEK293-T, alanine scan
# Description: as §1, §2
# human CD33 L338A = human CD33 L338A (human, UniProt P20138 18-364); experiment: flow cytometry, HEK293-T, alanine scan
# Description: as §1, §2
# human CD33 P330A = human CD33 P330A (human, UniProt P20138 18-364); experiment: flow cytometry, HEK293-T, alanine scan
# Description: as §1, §2
# human CD33 N297A = human CD33 N297A (human, UniProt P20138 18-364); experiment: flow cytometry, HEK293-T, alanine scan
# Description: as §1, §2
# human CD33 L316A = human CD33 L316A (human, UniProt P20138 18-364); experiment: flow cytometry, HEK293-T, alanine scan
# Description: as §1, §2
# human CD33 T299A = human CD33 T299A (human, UniProt P20138 18-364); experiment: flow cytometry, HEK293-T, alanine scan
# Description: as §1, §2
# human CD33 Y340A = human CD33 Y340A (human, UniProt P20138 18-364); experiment: flow cytometry, HEK293-T, alanine scan
# Description: as §1, §2
# human CD33 I281A = human CD33 I281A (human, UniProt P20138 18-364); experiment: flow cytometry, HEK293-T, alanine scan
# Description: as §1, §2
# human CD33 S305A = human CD33 S305A (human, UniProt P20138 18-364); experiment: flow cytometry, HEK293-T, alanine scan
# Description: as §1, §2
# human CD33 H285A = human CD33 H285A (human, UniProt P20138 18-364); experiment: flow cytometry, HEK293-T, alanine scan
# Description: as §1, §2
# human CD33 K283A = human CD33 K283A (human, UniProt P20138 18-364); experiment: flow cytometry, HEK293-T, alanine scan
# Description: as §1, §2
# human CD33 H300A = human CD33 H300A (human, UniProt P20138 18-364); experiment: flow cytometry, HEK293-T, alanine scan
# Description: as §1, §2
# human CD33 L275A = human CD33 L275A (human, UniProt P20138 18-364); experiment: flow cytometry, HEK293-T, alanine scan
# Description: as §1, §2
# human CD33 H317A = human CD33 H317A (human, UniProt P20138 18-364); experiment: flow cytometry, HEK293-T, alanine scan
# Description: as §1, §2
# human CD33 R286A, sequence (P20138 18-364 R286A limits assumed): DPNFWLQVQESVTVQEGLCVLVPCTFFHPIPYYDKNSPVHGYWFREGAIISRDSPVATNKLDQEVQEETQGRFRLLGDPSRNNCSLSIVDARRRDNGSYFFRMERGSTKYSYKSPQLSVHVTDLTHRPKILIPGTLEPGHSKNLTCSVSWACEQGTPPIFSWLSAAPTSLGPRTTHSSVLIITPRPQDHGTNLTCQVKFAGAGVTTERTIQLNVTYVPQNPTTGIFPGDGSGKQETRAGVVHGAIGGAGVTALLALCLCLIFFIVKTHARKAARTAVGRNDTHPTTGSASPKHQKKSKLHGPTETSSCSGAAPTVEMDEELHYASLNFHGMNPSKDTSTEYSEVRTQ
# human CD33 T303A, sequence (P20138 18-364 T303A limits assumed): as the sequence (P20138 18-364 R286A limits assumed) above, with A269R, T286A counted along it
# human CD33 N297A, sequence (P20138 18-364 N297A limits assumed): as the sequence (P20138 18-364 R286A limits assumed) above, with A269R, N280A counted along it
# human CD33 S342A, sequence (P20138 18-364 S342A limits assumed): as the sequence (P20138 18-364 R286A limits assumed) above, with A269R, S325A counted along it
# human CD33 Q311A, sequence (P20138 18-364 Q311A limits assumed): as the sequence (P20138 18-364 R286A limits assumed) above, with A269R, Q294A counted along it
# human CD33 P201A, sequence (P20138 18-364 P201A limits assumed): as the sequence (P20138 18-364 R286A limits assumed) above, with P184A, A269R counted along it
# human CD33 R291A, sequence (P20138 18-364 R291A limits assumed): as the sequence (P20138 18-364 R286A limits assumed) above, with A269R, R274A counted along it
# human CD33 S305A, sequence (P20138 18-364 S305A limits assumed): as the sequence (P20138 18-364 R286A limits assumed) above, with A269R, S288A counted along it
# human CD33 L273A, sequence (P20138 18-364 L273A limits assumed): as the sequence (P20138 18-364 R286A limits assumed) above, with L256A, A269R counted along it
# human CD33 V258A, sequence (P20138 18-364 V258A limits assumed): as the sequence (P20138 18-364 R286A limits assumed) above, with V241A, A269R counted along it
# human CD33 I281A, sequence (P20138 18-364 I281A limits assumed): as the sequence (P20138 18-364 R286A limits assumed) above, with I264A, A269R counted along it
# human CD33 K215A, sequence (P20138 18-364 K215A limits assumed): as the sequence (P20138 18-364 R286A limits assumed) above, with K198A, A269R counted along it
# human CD33 L270A, sequence (P20138 18-364 L270A limits assumed): as the sequence (P20138 18-364 R286A limits assumed) above, with L253A, A269R counted along it
# human CD33 L316A, sequence (P20138 18-364 L316A limits assumed): as the sequence (P20138 18-364 R286A limits assumed) above, with A269R, L299A counted along it
Binder,Mean % WT Binding (human CD33 P201A),Mean % WT Binding (human CD33 V258A),Mean % WT Binding (human CD33 T226A),Mean % WT Binding (human CD33 L229A),Mean % WT Binding (human CD33 K215A),Mean % WT Binding (human CD33 L270A),Mean % WT Binding (human CD33 V332A),Mean % WT Binding (human CD33 L273A),Mean % WT Binding (human CD33 R286A),Mean % WT Binding (human CD33 P301A),Mean % WT Binding (human CD33 T303A),Mean % WT Binding (human CD33 E321A),Mean % WT Binding (human CD33 K312A),Mean % WT Binding (human CD33 C276A),Mean % WT Binding (human CD33 A341S),Mean % WT Binding (human CD33 L277A),Mean % WT Binding (human CD33 A306S),Mean % WT Binding (human CD33 R291A),Mean % WT Binding (human CD33 S342A),Mean % WT Binding (human CD33 R296A),further results
B1,111 % WT binding,95.9 % WT binding,97.9 % WT binding,106 % WT binding,103 % WT binding,91 % WT binding,,,,,,,,,,,,,,,
B2,,,,,,,71.6 % WT binding,102 % WT binding,97.5 % WT binding,90.1 % WT binding,82.4 % WT binding,96.2 % WT binding,94.7 % WT binding,95.4 % WT binding,113 % WT binding,89 % WT binding,88.5 % WT binding,103 % WT binding,101 % WT binding,99.5 % WT binding,Mean % WT Binding (human CD33 Q311A): 126 % WT binding; Mean % WT Binding (human CD33 R287A): 97.1 % WT binding; Mean % WT Binding (human CD33 A272S): 110 % WT binding; Mean % WT Binding (human CD33 L271A): 84.9 % WT binding; Mean % WT Binding (human CD33 L338A): 105 % WT binding; Mean % WT Binding (human CD33 P330A): 90.3 % WT binding; Mean % WT Binding (human CD33 N297A): 83.7 % WT binding; Mean % WT Binding (human CD33 L316A): 79.5 % WT binding; Mean % WT Binding (human CD33 T299A): 91.1 % WT binding; Mean % WT Binding (human CD33 Y340A): 88.6 % WT binding; Mean % WT Binding (human CD33 I281A): 115 % WT binding; Mean % WT Binding (human CD33 S305A): 103 % WT binding; Mean % WT Binding (human CD33 H285A): 116 % WT binding; Mean % WT Binding (human CD33 K283A): 82.9 % WT binding; Mean % WT Binding (human CD33 H300A): 92.8 % WT binding; Mean % WT Binding (human CD33 L275A): 86.4 % WT binding; Mean % WT Binding (human CD33 H317A): 71.9 % WT binding
B3,115 % WT binding,95.9 % WT binding,96.5 % WT binding,97.1 % WT binding,85.6 % WT binding,105 % WT binding,,,,,,,,,,,,,,,
B4,,,,,,,100 % WT binding,104 % WT binding,95.6 % WT binding,105 % WT binding,95.5 % WT binding,111 % WT binding,94.5 % WT binding,100 % WT binding,89.6 % WT binding,104 % WT binding,99.2 % WT binding,104 % WT binding,102 % WT binding,102 % WT binding,Mean % WT Binding (human CD33 Q311A): 88.7 % WT binding; Mean % WT Binding (human CD33 R287A): 71.5 % WT binding; Mean % WT Binding (human CD33 A272S): 90.9 % WT binding; Mean % WT Binding (human CD33 L271A): 106 % WT binding; Mean % WT Binding (human CD33 L338A): 103 % WT binding; Mean % WT Binding (human CD33 P330A): 97.9 % WT binding; Mean % WT Binding (human CD33 N297A): 95.6 % WT binding; Mean % WT Binding (human CD33 L316A): 90.5 % WT binding; Mean % WT Binding (human CD33 T299A): 104 % WT binding; Mean % WT Binding (human CD33 Y340A): 101 % WT binding; Mean % WT Binding (human CD33 I281A): 104 % WT binding; Mean % WT Binding (human CD33 S305A): 86.8 % WT binding; Mean % WT Binding (human CD33 H285A): 103 % WT binding; Mean % WT Binding (human CD33 K283A): 88.6 % WT binding; Mean % WT Binding (human CD33 H300A): 101 % WT binding; Mean % WT Binding (human CD33 L275A): 94.6 % WT binding; Mean % WT Binding (human CD33 H317A): 95.2 % WT binding
